Patent US20250115655A1, “PHARMACEUTICALS AND DEVICES FOR THE COVALENT IMMOBILIZATION TO THE EXTRACELLULAR MATRIX BY TRANSGLUTAMINASE” (JULIUS-MAXIMILIANS-UNIVERSITÄT WÜRZBURG, priority 2017, published 2025)
Each block holds one molecule with its values, some of them ahead of it. Primed or numbered codes have the meaning given here. Ends that are not written are not given here. DBCO′ = not defined here

Key:
Factor XIIIa [1] = molecular target: T1, Factor XIIIa (Homo sapiens, UniProt P00488); assay: Crosslinking of D domain peptides to a glutamine substrate derived from α-2 plasmin inhibitor, catalyzed by FXIIIa, RP-HPLC; format: biochemical
T1 construct: purchased Fibrogammin®
T1 sequence (P00488 39-732 limits assumed): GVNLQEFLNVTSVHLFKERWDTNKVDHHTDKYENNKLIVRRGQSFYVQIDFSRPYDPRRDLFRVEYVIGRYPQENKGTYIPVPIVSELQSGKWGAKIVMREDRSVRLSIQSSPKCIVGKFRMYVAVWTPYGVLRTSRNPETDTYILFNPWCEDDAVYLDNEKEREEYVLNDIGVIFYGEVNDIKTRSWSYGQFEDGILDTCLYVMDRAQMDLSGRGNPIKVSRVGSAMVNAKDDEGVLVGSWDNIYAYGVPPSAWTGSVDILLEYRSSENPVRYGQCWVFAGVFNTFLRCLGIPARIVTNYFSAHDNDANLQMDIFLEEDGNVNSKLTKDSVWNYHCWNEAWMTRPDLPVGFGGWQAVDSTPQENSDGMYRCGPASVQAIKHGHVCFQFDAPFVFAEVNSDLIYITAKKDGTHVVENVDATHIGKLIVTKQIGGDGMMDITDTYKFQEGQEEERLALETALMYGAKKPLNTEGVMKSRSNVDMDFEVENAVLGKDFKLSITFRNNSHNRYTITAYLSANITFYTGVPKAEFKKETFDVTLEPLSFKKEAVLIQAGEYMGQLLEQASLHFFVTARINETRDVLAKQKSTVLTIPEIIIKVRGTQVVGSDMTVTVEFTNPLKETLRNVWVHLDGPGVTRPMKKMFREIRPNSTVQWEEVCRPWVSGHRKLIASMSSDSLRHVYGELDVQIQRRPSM
Excerpt: Using solid phase peptide synthesis, the isolated peptide sequence of the D domain of human IGF-I (SEQ ID NO: 1) and mouse IGF-I (SEQ ID NO: 6) were synthesized and purified using preparative HPLC to achieve >95% purity. Additionally, a collection of N-terminally truncated versions of both sequences were created, in order to test if 7 or less amino acids are sufficient to be recognized by Factor XIIIa. According to a trypsin digest of coupled IGF-I, only K68 is modified and therefore, a reduction of the sequence to the last 3 amino acids could be possible. The truncated versions were manufactured and purified accordingly. Lyophilized peptides were dissolved in Tris buffer (20 mM Tris-HCl, 150 mM NaCl, pH 7.6) and reacted with a glutamine substrate (SEQ ID NO: 13, derived from α-2 plasmin inhibitor) in presence of 0.1 M calcium chloride and 10 U/ml Factor XIIIa (Fibrogammin®, activated with 0.02 U/ml thrombin). Following 30 minutes incubation at 37° C., the coupling reaction was stopped and the amount of crosslinked peptide analyzed using analytical RP-HPLC. The crosslinking ratios using equimolar amounts of both peptides (D domain and glutamine acceptor) are depicted in Table 1.

Factor XIIIa [2] = molecular target: T1, Factor XIIIa; assay: as above; format: biochemical; remark: listed apart in the source
fibronectin [3] = assay: Immobilization of dye-D domain conjugate on cell derived, isolated ECM / fibronectin using FXIIIa; format: biochemical; conditions: ECM from NIH3T3 fibroblasts (FIG. 2)
Excerpt: As proof of concept (for covalent attachment of a bioactive factor to extracellular matrix (ECM), we modified the D domain of IGF-I (SEQ ID NO: 1) with an dibenzocyclooctyne group (DBCO) at the N-terminus (SEQ: DBCO-PLKPAKSA), followed by coupling of a small molecule (fluorescent dye Azide Fluor 488) onto cell derived, isolated ECM. The ECM was produced by NIH3T3 fibroblasts and on day 6 decellularized and washed to remove cell debris and adsorbed proteins. Taking advantage of the intrinsic property of fibronectin, representing a glutamine donor for Factor XIII, we immobilized the fluorescent dye-D domain conjugate on the N-terminus of fibronectin without impairment of ECM structure and integrity.
FIG. 2: Immobilization of the covalent conjugate of the D domain (SEQ ID NO: 1) and the small molecule Azide Fluor 488 on fibronectin (isolated from human plasma) catalyzed by transglutaminase. The conjugates coupled to fibronectin in absence (lane #1) and presence (lane #2) of Factor XIIIa were transferred to a 5% SDS-PAGE gel and analyzed for fluorescence.
FIG. 3: Confocal laser scanning microscopy images of the Azide Fluor 488-D domain conjugate immobilized on isolated ECM in presence (panel 1) or absence (panel 2) of factor XIIIa. The green fluorescence of the immobilized dye-peptide conjugate co-localized with fibronectin (red fluorescence).

fibronectin [4] = assay: Immobilization of eGFP modified with the D domain on plasma fibronectin and ECM using factor XIIIa; format: biochemical
Description: The same coupling reaction as described for IGF-I (Example 3) was also performed with enhanced green fluorescent protein (eGFP), previously modified with the D domain of human IGF-I (SEQ ID NO: 1), and immobilized using factor XIIIa (FIGS. 8A-8B). […] FIGS. 8A-8B: (8A) Western Blot of enhanced green fluorescent protein modified with the D domain (SEQ ID NO: 1) (eGFP-D domain, lane #1) after incubation with fibronectin in absence (lane #2) and presence (lane #3) of Factor XIIIa. (8B) Confocal laser scanning microscopy images of eGFP modified with the D domain (SEQ ID NO: 1) and immobilized on isolated ECM in presence (panel 1) or absence (panel 2) of factor XIIIa. The immobilized eGFP was visualized with a monoclonal eGFP antibody (green) und co-localized with fibronectin (red).

SEQ ID NO: 10 (-AS 67) = molecular target: T2, SEQ ID NO: 10 (-AS 67)
T2 chain: KAA

[5] = molecular target: T3, N-terminally truncated D domain of human IGF-I, SEQ ID NO: 4
T3 chain: PAKSA

[6] = molecular target: T4, D domain of human IGF-I (SEQ ID NO: 1)
T4 chain: PLKPAKSA

[7] = molecular target: T5, N-terminally truncated D domain of mouse IGF-I, SEQ ID NO: 8
T5 chain: KPTKAA

[8] = molecular target: T6, N-terminally truncated D domain of human IGF-I, SEQ ID NO: 3
T6 chain: KPAKSA

[9] = molecular target: T7, N-terminally truncated D domain of human IGF-I, SEQ ID NO: 2
T7 chain: LKPAKSA

SEQ ID NO: 5 (-AS 67) = molecular target: T8, SEQ ID NO: 5 (-AS 67)
T8 chain: KSA

[10] = molecular target: T9, D domain of mouse IGF-I (SEQ ID NO: 6)
T9 chain: PLKPTKAA

[11] = molecular target: T10, N-terminally truncated D domain of mouse IGF-I, SEQ ID NO: 10
T10 chain: TKAA

[12] = molecular target: T11, N-terminally truncated D domain of human IGF-I, SEQ ID NO: 5
T11 chain: AKSA

[13] = molecular target: T12, N-terminally truncated D domain of mouse IGF-I, SEQ ID NO: 9
T12 chain: PTKAA

[14] = molecular target: T13, N-terminally truncated D domain of mouse IGF-I, SEQ ID NO: 7
T13 chain: LKPTKAA

[15] = equimolar peptide and glutamine substrate, incubation for 30 minutes with 10 U/ml FXIIIa, 37° C.

Molecule: PLKPAKSA (listed as Homo sapiens) [SEQ ID NO: 1, isolated D domain of human IGF-I]
Crosslinking Efficacy (1:1 molar ratio)* (Factor XIIIa [2]; molar excess of the glutamine sequence 0.5): 44.48 ± 2.45
Crosslinking Efficacy (1:1 molar ratio)* (Factor XIIIa [2]; molar excess of the glutamine sequence 2.5): 84.67 ± 2.02
Crosslinking Efficacy (1:1 molar ratio)* (Factor XIIIa [2]; molar excess of the glutamine sequence 3.75): 87.53 ± 5.33
Crosslinking Efficacy (1:1 molar ratio)* (Factor XIIIa [2]; molar excess of the glutamine sequence 5): 84.91 ± 6.23
Crosslinking Efficacy (1:1 molar ratio)* (Factor XIIIa [2]; molar excess of the glutamine sequence 10): 88.67 ± 6.52
conversion, time course of the coupling reaction with the Q peptide (Factor XIIIa [2]; within 10 minutes (FIG. 1)): about 80%
Crosslinking Efficacy (1:1 molar ratio)* (Factor XIIIa [1]; [15]): 82.94 ± 0.79
Crosslinking Efficacy (1:1 molar ratio)* (Factor XIIIa [1]; molar excess of the glutamine sequence 1): 81.06 ± 5.13

Molecule: LKPAKSA (listed as Homo sapiens) [SEQ ID NO: 2, N-terminally truncated human D domain]
Crosslinking Efficacy (1:1 molar ratio)* (Factor XIIIa [1]; [15]): 72.45 ± 1.57

Molecule: AKSA (listed as Homo sapiens) [SEQ ID NO: 5, N-terminally truncated human D domain]
Crosslinking Efficacy (1:1 molar ratio)* (Factor XIIIa [1]; [15]): 49.52 ± 1.29

Molecule: Alexa488-D domain: DBCO-PLKPAKSA coupled with fluorescent dye Azide Fluor 488 ({Azide Fluor 488-DBCO′}-PLKPAKSA)
immobilization on ECM (fibronectin [3]): high efficacy

Molecule: eGFP-D domain conjugate: enhanced green fluorescent protein modified with the D domain of human IGF-I (SEQ ID NO: 1) (PLKPAKSA; also: conjugated to eGFP)
conjugation to plasma fibronectin (western blot) (fibronectin [4]; factor XIIIa (FIG. 8A)): effective conjugation
immobilization of the modified protein on ECM (fibronectin [4]; factor XIIIa (FIG. 8B)): confirmed

Molecule: KAA (listed as Mus musculus) [SEQ ID NO: 10 (−AS 67)]
Crosslinking Efficacy (1:1 molar ratio)* (Factor XIIIa [1]; [15]): 24.68 ± 3.42

B1: human Factor XIIIa (Fibrogammin, activated with 0.02 U/ml thrombin) (protein)
chain: GVNLQEFLNVTSVHLFKERWDTNKVDHHTDKYENNKLIVRRGQSFYVQIDFSRPYDPRRDLFRVEYVIGRYPQENKGTYIPVPIVSELQSGKWGAKIVMREDRSVRLSIQSSPKCIVGKFRMYVAVWTPYGVLRTSRNPETDTYILFNPWCEDDAVYLDNEKEREEYVLNDIGVIFYGEVNDIKTRSWSYGQFEDGILDTCLYVMDRAQMDLSGRGNPIKVSRVGSAMVNAKDDEGVLVGSWDNIYAYGVPPSAWTGSVDILLEYRSSENPVRYGQCWVFAGVFNTFLRCLGIPARIVTNYFSAHDNDANLQMDIFLEEDGNVNSKLTKDSVWNYHCWNEAWMTRPDLPVGFGGWQAVDSTPQENSDGMYRCGPASVQAIKHGHVCFQFDAPFVFAEVNSDLIYITAKKDGTHVVENVDATHIGKLIVTKQIGGDGMMDITDTYKFQEGQEEERLALETALMYGAKKPLNTEGVMKSRSNVDMDFEVENAVLGKDFKLSITFRNNSHNRYTITAYLSANITFYTGVPKAEFKKETFDVTLEPLSFKKEAVLIQAGEYMGQLLEQASLHFFVTARINETRDVLAKQKSTVLTIPEIIIKVRGTQVVGSDMTVTVEFTNPLKETLRNVWVHLDGPGVTRPMKKMFREIRPNSTVQWEEVCRPWVSGHRKLIASMSSDSLRHVYGELDVQIQRRPSM
Crosslinking Efficacy (1:1 molar ratio) to the glutamine substrate derived from α2PI, 30 min, 10 U/ml FXIIIa, RP-HPLC (SEQ ID NO: 10 (-AS 67)): 24.7%
Crosslinking Efficacy (1:1 molar ratio) to the glutamine substrate derived from α2PI, 30 min, 10 U/ml FXIIIa, RP-HPLC [5]: 44.2%
Crosslinking Efficacy (1:1 molar ratio) to the glutamine substrate derived from α2PI, 30 min, 10 U/ml FXIIIa, RP-HPLC [6]: 82.9%
conversion in the time course of the coupling reaction between the Q peptide and the D domain [6]: achieving about 80% conversion within 10 minutes
Crosslinking Efficacy (1:1 molar ratio) to the glutamine substrate derived from α2PI, 30 min, 10 U/ml FXIIIa, RP-HPLC [7]: 55.7%
Crosslinking Efficacy (1:1 molar ratio) to the glutamine substrate derived from α2PI, 30 min, 10 U/ml FXIIIa, RP-HPLC [8]: 58.4%
Crosslinking Efficacy (1:1 molar ratio) to the glutamine substrate derived from α2PI, 30 min, 10 U/ml FXIIIa, RP-HPLC [9]: 72.5%
Crosslinking Efficacy (1:1 molar ratio) to the glutamine substrate derived from α2PI, 30 min, 10 U/ml FXIIIa, RP-HPLC (SEQ ID NO: 5 (-AS 67)): 21.4%
Crosslinking Efficacy (1:1 molar ratio) to the glutamine substrate derived from α2PI, 30 min, 10 U/ml FXIIIa, RP-HPLC [10]: 84.2%
Crosslinking Efficacy (1:1 molar ratio) to the glutamine substrate derived from α2PI, 30 min, 10 U/ml FXIIIa, RP-HPLC [11]: 39.3%
Crosslinking Efficacy (1:1 molar ratio) to the glutamine substrate derived from α2PI, 30 min, 10 U/ml FXIIIa, RP-HPLC [12]: 49.5%
Crosslinking Efficacy (1:1 molar ratio) to the glutamine substrate derived from α2PI, 30 min, 10 U/ml FXIIIa, RP-HPLC [13]: 33.7%
Crosslinking Efficacy (1:1 molar ratio) to the glutamine substrate derived from α2PI, 30 min, 10 U/ml FXIIIa, RP-HPLC [14]: 69.4%

Now from value to molecule:

Crosslinking Efficacy (1:1 molar ratio)* (Factor XIIIa [1]; [15]): 55.68 ± 3.25
Molecule: KPTKAA (listed as Mus musculus) [SEQ ID NO: 8, N-terminally truncated mouse D domain]

Crosslinking Efficacy (1:1 molar ratio)* (Factor XIIIa [1]; [15]): 44.18 ± 3.23
Molecule: PAKSA (listed as Homo sapiens) [SEQ ID NO: 4, N-terminally truncated human D domain]

Crosslinking Efficacy (1:1 molar ratio)* (Factor XIIIa [1]; [15]): 58.37 ± 2.10
Molecule: KPAKSA (listed as Homo sapiens) [SEQ ID NO: 3, N-terminally truncated human D domain]

Crosslinking Efficacy (1:1 molar ratio)* (Factor XIIIa [1]; [15]): 69.42 ± 8.62
Molecule: LKPTKAA (listed as Mus musculus) [SEQ ID NO: 7, N-terminally truncated mouse D domain]

Crosslinking Efficacy (1:1 molar ratio)* (Factor XIIIa [1]; [15]): 84.16 ± 7.76
Molecule: PLKPTKAA (listed as Mus musculus) [SEQ ID NO: 6, isolated D domain of mouse IGF-I]

Crosslinking Efficacy (1:1 molar ratio)* (Factor XIIIa [1]; [15]): 21.40 ± 1.96
Molecule: KSA (listed as Homo sapiens) [SEQ ID NO: 5 (−AS 67)]

Crosslinking Efficacy (1:1 molar ratio)* (Factor XIIIa [1]; [15]): 33.69 ± 1.41
Molecule: PTKAA (listed as Mus musculus) [SEQ ID NO: 9, N-terminally truncated mouse D domain]

Crosslinking Efficacy (1:1 molar ratio)* (Factor XIIIa [1]; [15]): 39.26 ± 4.07
Molecule: TKAA (listed as Mus musculus) [SEQ ID NO: 10, N-terminally truncated mouse D domain]
